A word on the Kd: it is the concentration at which binding is half-saturated. A low value points to tighter binding. Broadly, the koff is a measure of how fast the partners let go of each other. One may read the kon as the second-order rate constant of association.

For series [1], the target named is T1, IL-8 (CXCL8), captured by monoclonal antibody (Homo sapiens, UniProt P10145 P10145:28-99). Description: single-molecule TIRF; antibody-mediated capture; 25% horse serum, 21 C; kon 2.29e6, koff 2.32. The note with it: tags: Bio-Rad BR-1098; captured by biotinylated anti-IL-8 EPR19358-108; label: 3'-Cy5. On the procedure:
(§1) SiMREPS assays of recombinant antigens-All sample handling was performed in GeneMate low-adhesion 1.7-mL microcentrifuge tubes, and dilutions were performed in 25% horse serum, 0.75×PBS, pH 7.4, and 7.5 mg/mL BSA. The slide surface was washed with 100 μL of T50 buffer (10 mM Tris-HCl, 50 mM NaCl, 1 mm EDTA, pH 8.0) for 10 minutes followed by the addition of 40 μL 1 mg/mL streptavidin. After 10 minutes, excess streptavidin was removed, and the sample chamber washed three times with 100 μL of 1×PBS. Next, the coverslip was coated with the biotinylated capture antibody by adding 40 μL of a solution containing 10 nM of biotinylated capture antibody in 1×PBS buffer and incubating for 30 minutes. […]
(§2) To systematically assess the effect of aptamer size on the kinetics of binding to the small (8.4 kDa) protein IL-8, two different antigen capture strategies were used: direct capture, in which C-terminally biotin labelled IL-8 was immobilized directly on the surface by the biotin-streptavidin interaction; and antibody mediated capture, in which non-biotinylated IL-8 was captured on the surface by a surface-immobilized biotinylated monoclonal antibody (FIG. 7A). […] To gain more quantitative insight, association and dissociation rate constants were calculated from the dwell time distributions in the aptamer-unbound and -bound states, respectively, and are shown in Table 2.

The target in series [2] is T2, IL-8 (CXCL8), C-terminally biotinylated, directly surface-captured (Homo sapiens, UniProt P10145 P10145:28-99). Description: single-molecule TIRF; direct IL-8 capture; 25% horse serum, 21 C; kon 3.21e6, koff 0.54. The note with it: tags: C-terminal biotin; Chemotactics B-CXCL8-2 ug; immobilized on streptavidin; label: 3'-Cy5.
T2 sequence (P10145 28-99, one chain of several): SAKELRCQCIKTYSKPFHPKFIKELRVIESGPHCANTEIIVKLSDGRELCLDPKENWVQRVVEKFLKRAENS
Text: as §2

Series [3] concerns the target T1, IL-8 (CXCL8), captured by monoclonal …. Description: single-molecule TIRF; antibody-mediated capture; 25% horse serum, 21 C; kon 4.48e6, koff 1.17. The note with it: tags: Bio-Rad BR-1098; captured by biotinylated anti-IL-8 EPR19358-108; label: 5'-Cy5. On the procedure: as §1, §2
Series [4] addresses T2, IL-8 (CXCL8), C-terminally …. Description: single-molecule TIRF; direct IL-8 capture; 25% horse serum, 21 C; kon 5.68e6, koff 0.50. The note with it: tags: C-terminal biotin; Chemotactics B-CXCL8-2 ug; immobilized on streptavidin; label: 5'-Cy5.
Text: as §2

The target of series [5] is T1, IL-8 (CXCL8), captured by monoclonal …. Description: single-molecule TIRF; antibody-mediated capture; 25% horse serum, 21 C; kon 0.99e6, koff 2.50. To be noted: tags: Bio-Rad BR-1098; captured by biotinylated anti-IL-8 EPR19358-108; label: 3'-Cy5. On the procedure: as §1, §2
Series [6] addresses T2, IL-8 (CXCL8), C-terminally …. Description: single-molecule TIRF; direct IL-8 capture; 25% horse serum, 21 C; kon 2.08e6, koff 0.55. To be noted: tags: C-terminal biotin; Chemotactics B-CXCL8-2 ug; immobilized on streptavidin; label: 3'-Cy5.
Text: as §2

Series [7] deals with T3, VEGF165 (Homo sapiens, UniProt P15692-4 P15692-4:27-191). The experiment in a line: single-molecule TIRF; same buffer as t22 G->A. To be noted: tags: Abcam ab9571; captured by biotinylated anti-VEGF165 IgG (Bio-Rad); chain copies: 2; label: 3'-Cy5.
T3 sequence (P15692 other isoform, or with tags, fused parts or gaps): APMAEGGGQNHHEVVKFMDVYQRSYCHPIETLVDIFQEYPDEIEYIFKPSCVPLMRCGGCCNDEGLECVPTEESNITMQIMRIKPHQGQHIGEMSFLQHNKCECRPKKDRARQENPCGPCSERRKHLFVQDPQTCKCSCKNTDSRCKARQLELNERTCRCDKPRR
In series [8] the target is T3, VEGF165. The experiment in a line: single-molecule TIRF. To be noted: tags: Abcam ab9571; captured by biotinylated anti-VEGF165 IgG (Bio-Rad); chain copies: 2; label: 3'-Cy5.

T1 sequence (P10145 28-99, one chain of several): as the sequence (P10145 28-99, one chain of several) above

In the case of GGGGGCUUAUCAUUCCAUUUAGUGUUAUGAUAACC (ssRNA, 2'-F at all pyrimidines) [8A-35 (SEQ ID NO 2)], the Kd in series [1] was 1010 nM; in series [2], 168 nM.
On to GGGUUAUCAUUCCAUUUAGUGUUAUGAUAA (ssRNA, 2'-F at all pyrimidines) [8A-30 (SEQ ID NO 3)], for which the values for the dissociation constant (Kd) in series [3] and in series [4] were 261 nM and 88 nM, respectively.

B1: 8A-44 (SEQ ID NO 1) (ssRNA)
RNA: GGGGGCUUAUCAUUCCAUUUAGUGUUAUGAUAACCUCUCCCAUA
modifications: 2'-F at C and U (printed i2FC/i2FU up to position 36; text states all pyrimidines)
On to B1, for which the Kd was found to be 2520 nM in series [5] and 264 nM in series [6].
As to GCGGUAGGAAGAAUUGGAAGCGC (ssRNA, 2'-F at all pyrimidines) [t22 (SEQ ID NO 4)], in the series with VEGF165 [7], the koff came out at 0.02 s⁻¹. In the series with VEGF165 [8], this molecule gave a kon of 220000 M⁻¹ s⁻¹.

For the origin of these results see patent publication US20250383350, “ANALYTE DETECTION USING APTAMERS” (The Regents of the University of Michigan, published 2025).
